Values quoted from earlier work as cited in article PMC6472649.
Read-outs that look alike come from different tables or passages of the source.

Legend:
[1] = target: SFLLRN ligand (Homo sapiens); assay: FD-AFM
[2] = target: SFLLRN ligand (Homo sapiens); assay: FD-AFM; remark: listed apart in the source

Kd [1]: 0.35 µM
Kd [2]: 40 µM
Substance: PAR1 (from UniProt P25116)
